In the Immune Epitope Database (IEDB) one finds IC50 data, which are given here for 17 sequences.

What is called IC50 is the concentration that gives 50% inhibition.

One assay concerns the target HLA-B*07:02. In words: IEDB peptide-MHC binding, purified MHC/competitive/radioactivity; ≥ and ≤ were set here for values at or beyond the usual limits of such assays. The following applies: source organism: Bordetella pertussis.
On to LAARGDGAL, for which the 50% inhibitory concentration (IC50) amounted to 6.34 µM.
In the case of QQLKQADRD, the IC50 worked out at 69.6 µM.

The next assay deals with HLA-B*35:01. The assay is described as above. The following applies: source organism: Bordetella pertussis.
Consider LAARGDGAL, for which the IC50 was determined as 69.9 µM.
YAIDGTAAG: the IC50 was 2.33 µM.

In another assay the target is HLA-A*02:01. The assay is described as above. The following applies: source organism: Bordetella pertussis.
Consider HLSPALADV, for which the IC50 came to 0.444 µM.
For STYELLDYL, the IC50 was found to be 8.01 µM.

Another assay has as its target HLA-B*57:01. Described as above. The following applies: source organism: Bordetella pertussis.
For the sequence EKRLDIDDA, the concentration for half-maximal inhibition (IC50) is at least 70.4 µM.
NNETMSGRQ: the IC50 is at least 70.4 µM.
Regarding TVVQRNKHW, the IC50 was at least 70.4 µM.
On the same count and under the same terms, under VTSVAMKPY stands 9.09 µM.

The target of the next assay is HLA-B*53:01. The assay is described as above. To be noted: source organism: Bordetella pertussis.
In the case of ASSPDAHVP, the IC50 was found to be 52.3 µM.
On to FIYRETFCI, for which the IC50 is 6.63 µM.
Take LSAALGADW: the IC50 was 1.69 µM.
For TVVQRNKHW, the IC50 was 69.9 µM.
For the sequence VGAGGYEAG, the IC50 stood at 69.9 µM.
Same read-out and setting: the same measure for VSGGSLSAP: 54.5 µM.
On the same count and under the same terms, under YAEHGEVSI stands 11.4 µM.

For another assay, the target named is HLA-B*44:03. Described as above. The following applies: source organism: Bordetella pertussis.
Regarding AEGGATLGA, the IC50 was found to be 12 µM.
For LSAALGADW, the IC50 was determined as 1.17 µM.
With MEVMLRAVF, the IC50 came to 0.0115 µM.
